From US20070265350A1 (UNIVERSITY OF IOWA RESEARCH FOUNDATION, published 2007)

Target: T1, His-Cdc42 (UniProt P60953 1-191, limits assumed)
T1 construct: Bought protein; also called His-tagged Cdc42; Cdc42-GTPγS; not shown: His tag
Assay: in vitro pull-down of immobilized His-Cdc42 (nucleotide analogs as indicated) with purified bovine SOD1, Western blot (FIG. 1B)
Protocol: Pull-down assays with GST- and His-tagged proteins. Dynabeads talon for histidine tagged proteins were washed with potassium phosphate buffer (PPHB) containing 100 mM KH₂PO₄, 10 mM NaCl, 0.25 mM MgCl₂ and 100 nM CaCl₂. […] The GTPases were either used directly or preloaded with either GTPγS or GDPβS and then washed. […] Samples were incubated at room temperature (RT) for 30 minutes with intermittent gentle agitation. […] The fourth wash was carried out in 50 mM Tris pH 6.8. Proteins were eluted using 20 μl 125 mM imidazole and samples were then mixed with SDS-PAGE reducing loading buffer and separated by SDS-PAGE for Western blotting.

T1 sequence (P60953 whole entry): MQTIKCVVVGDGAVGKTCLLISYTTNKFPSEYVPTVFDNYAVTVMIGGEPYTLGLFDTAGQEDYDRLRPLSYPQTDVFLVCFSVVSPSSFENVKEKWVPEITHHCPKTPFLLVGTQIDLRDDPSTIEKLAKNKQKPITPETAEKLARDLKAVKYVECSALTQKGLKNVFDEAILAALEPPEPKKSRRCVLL

binding result: no binding
B1: Bovine copper/zinc superoxide dismutase (SOD1), native (enzyme)
chain: not shown
notes: Native, metalated enzyme as bought; also called bovine SOD1; Bov.SOD1
